Publication PMC4156907 (Molecular cell, 2014)
Read-outs that look alike come from different tables or passages of the source.

T1: MDA5 (full length, FLAG-tagged) (UniProt Q9BYX4 1-1025)
T1 sequence (looked up): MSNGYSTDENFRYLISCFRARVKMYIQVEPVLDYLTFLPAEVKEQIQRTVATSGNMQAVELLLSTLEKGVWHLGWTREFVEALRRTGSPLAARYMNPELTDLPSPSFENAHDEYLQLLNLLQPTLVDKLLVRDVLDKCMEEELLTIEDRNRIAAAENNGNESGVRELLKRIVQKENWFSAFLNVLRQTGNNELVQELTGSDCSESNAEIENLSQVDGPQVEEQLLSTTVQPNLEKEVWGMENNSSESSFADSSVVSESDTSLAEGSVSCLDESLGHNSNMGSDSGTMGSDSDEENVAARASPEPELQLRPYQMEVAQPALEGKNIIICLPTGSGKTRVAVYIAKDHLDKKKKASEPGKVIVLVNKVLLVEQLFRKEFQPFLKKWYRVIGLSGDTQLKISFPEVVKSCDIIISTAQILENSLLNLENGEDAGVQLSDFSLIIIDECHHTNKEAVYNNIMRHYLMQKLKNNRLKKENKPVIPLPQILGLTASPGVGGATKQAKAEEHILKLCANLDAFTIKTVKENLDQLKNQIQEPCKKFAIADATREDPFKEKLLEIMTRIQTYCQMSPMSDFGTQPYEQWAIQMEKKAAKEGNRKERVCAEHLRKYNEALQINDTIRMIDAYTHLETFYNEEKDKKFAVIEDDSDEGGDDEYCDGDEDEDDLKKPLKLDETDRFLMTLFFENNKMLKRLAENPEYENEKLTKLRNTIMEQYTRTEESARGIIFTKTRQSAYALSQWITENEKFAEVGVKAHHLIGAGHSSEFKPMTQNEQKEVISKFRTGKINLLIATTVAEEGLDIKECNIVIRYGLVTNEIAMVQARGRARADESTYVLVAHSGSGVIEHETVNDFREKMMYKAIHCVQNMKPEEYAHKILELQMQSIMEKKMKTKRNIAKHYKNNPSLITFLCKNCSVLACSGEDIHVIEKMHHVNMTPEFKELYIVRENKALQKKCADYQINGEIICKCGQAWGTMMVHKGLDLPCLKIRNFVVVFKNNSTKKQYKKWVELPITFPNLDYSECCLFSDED

T2: MDA5-C (UniProt Q9BYX4 295-1025)
T2 sequence: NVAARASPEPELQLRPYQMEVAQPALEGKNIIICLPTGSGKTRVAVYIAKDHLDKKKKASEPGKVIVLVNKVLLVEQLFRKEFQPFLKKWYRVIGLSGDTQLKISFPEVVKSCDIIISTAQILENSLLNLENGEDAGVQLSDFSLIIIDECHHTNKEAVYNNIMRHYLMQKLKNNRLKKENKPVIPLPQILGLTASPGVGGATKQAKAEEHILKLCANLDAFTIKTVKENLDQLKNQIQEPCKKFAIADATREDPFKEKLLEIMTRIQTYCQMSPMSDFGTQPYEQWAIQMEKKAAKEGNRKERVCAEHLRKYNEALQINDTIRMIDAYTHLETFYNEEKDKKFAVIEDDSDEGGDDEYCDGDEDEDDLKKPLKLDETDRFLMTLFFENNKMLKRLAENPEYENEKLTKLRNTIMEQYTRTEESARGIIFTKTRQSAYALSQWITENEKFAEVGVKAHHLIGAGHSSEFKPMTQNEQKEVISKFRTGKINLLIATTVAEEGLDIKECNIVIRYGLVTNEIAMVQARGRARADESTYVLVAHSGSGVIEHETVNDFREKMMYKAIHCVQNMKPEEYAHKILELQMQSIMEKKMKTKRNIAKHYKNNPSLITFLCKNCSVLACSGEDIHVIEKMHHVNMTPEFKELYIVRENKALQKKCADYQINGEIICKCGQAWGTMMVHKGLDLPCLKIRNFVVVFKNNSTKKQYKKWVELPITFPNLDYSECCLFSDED

T3: LGP2 (UniProt Q96C10 1-678)
T3 sequence: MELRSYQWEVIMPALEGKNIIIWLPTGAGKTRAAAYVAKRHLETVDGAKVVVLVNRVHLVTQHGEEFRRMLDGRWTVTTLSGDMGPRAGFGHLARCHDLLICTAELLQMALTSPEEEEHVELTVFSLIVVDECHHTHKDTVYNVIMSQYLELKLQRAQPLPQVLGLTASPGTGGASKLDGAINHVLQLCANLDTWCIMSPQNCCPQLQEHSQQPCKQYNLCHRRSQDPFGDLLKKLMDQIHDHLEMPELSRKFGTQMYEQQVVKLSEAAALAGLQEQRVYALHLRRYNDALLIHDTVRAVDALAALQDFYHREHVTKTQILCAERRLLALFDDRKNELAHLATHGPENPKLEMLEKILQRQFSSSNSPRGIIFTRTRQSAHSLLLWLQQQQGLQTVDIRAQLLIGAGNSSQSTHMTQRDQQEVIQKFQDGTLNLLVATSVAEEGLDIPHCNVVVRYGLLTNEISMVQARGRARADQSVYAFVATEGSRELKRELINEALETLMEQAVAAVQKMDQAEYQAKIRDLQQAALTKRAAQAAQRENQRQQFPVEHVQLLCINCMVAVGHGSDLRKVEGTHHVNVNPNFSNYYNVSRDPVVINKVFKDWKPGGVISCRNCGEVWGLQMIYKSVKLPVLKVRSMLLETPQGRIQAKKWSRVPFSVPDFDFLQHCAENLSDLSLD

B1: LGP2 (FLAG-tagged) (natural protein, UniProt Q96C10 1-678, looked up)
chain: T3 sequence
B2: 44bp dsRNA (dsRNA)
RNA 1: CGAGCAGACUGGCAAUCCGGAUCUCCCAGGCCCGGCUUUCAAGC
RNA 2: GCUUGAAAGCCGGGCCUGGGAGAUCCGGAUUGCCAGUCUGCUCG
modifications: strand 2 5' amino modifier C6 (5AmMC6)

How the values were obtained:
[1] = target: T1, MDA5 (full length, FLAG-tagged); assay: co-IP
MDA5-C [2] = target: T2, MDA5-C; assay: single-molecule TIRF
LGP2 = target: T3, LGP2; assay: single-molecule TIRF
MDA5-C [3] = target: T2, MDA5-C; assay: single-molecule TIRF; remark: listed apart in the source

Row | Binder | fold increase of co-precipitated LGP2 with poly(I:C) against without poly(I:C) [1] [fold] | Kd (MDA5-C [2]) [nM] | Kd (LGP2) [nM] | Kd (MDA5-C [3]) [nM]
1 | B1 | > 3 | – | – | –
2 | B2 | – | 326 ± 138 | 56.1 ± 10 | 771 ± 207
